Assay results reported in patent US6387696.

How the values were obtained:
[1] = target: recombinant human calcium channel α1B-1β1-2 on transfected HEK293 cells (human); assay: saturation binding of 125I-ω-CgTx GVIA to transiently transfected HEK293 cells
[2] = target: recombinant human calcium channel α1B-1α2bβ1-2 on transfected HEK293 cells (human); assay: as above
[3] = target: recombinant human calcium channel α1B-1β1-3 on transfected HEK293 cells (human); assay: as above
[4] = target: recombinant human calcium channel α1B-2β1-3 on transfected HEK293 cells (human); assay: as above
[5] = target: recombinant human calcium channel α1B-2α2bβ1-2 on transfected HEK293 cells (human); assay: as above
[6] = target: recombinant human calcium channel α1B-2α2bβ1-3 on transfected HEK293 cells (human); assay: as above
[7] = target: recombinant human calcium channel α1B-2β1-2 on transfected HEK293 cells (human); assay: as above
[8] = target: recombinant human calcium channel α1B-1α2bβ1-2 on transfected HEK293 cells (human); assay: ω-CgTx binding to transiently transfected HEK293 cells (8, 5 and 2 µg plasmids)
[9] = target: T1, recombinant human calcium channel α1B-1α2b on transfected HEK293 cells (human)
[10] = target: human calcium channel α1B-1 subunit alone on transfected HEK293 cells (human)
[11] = target: T1, recombinant human calcium channel …; assay: saturation binding of 125I-ω-CgTx GVIA to transiently transfected HEK293 cells

Chain of recombinant human calcium channel α1B-1β1-3 on transfected HEK293 cells (human) (B1AQK5 whole entry, chain 1 of 2): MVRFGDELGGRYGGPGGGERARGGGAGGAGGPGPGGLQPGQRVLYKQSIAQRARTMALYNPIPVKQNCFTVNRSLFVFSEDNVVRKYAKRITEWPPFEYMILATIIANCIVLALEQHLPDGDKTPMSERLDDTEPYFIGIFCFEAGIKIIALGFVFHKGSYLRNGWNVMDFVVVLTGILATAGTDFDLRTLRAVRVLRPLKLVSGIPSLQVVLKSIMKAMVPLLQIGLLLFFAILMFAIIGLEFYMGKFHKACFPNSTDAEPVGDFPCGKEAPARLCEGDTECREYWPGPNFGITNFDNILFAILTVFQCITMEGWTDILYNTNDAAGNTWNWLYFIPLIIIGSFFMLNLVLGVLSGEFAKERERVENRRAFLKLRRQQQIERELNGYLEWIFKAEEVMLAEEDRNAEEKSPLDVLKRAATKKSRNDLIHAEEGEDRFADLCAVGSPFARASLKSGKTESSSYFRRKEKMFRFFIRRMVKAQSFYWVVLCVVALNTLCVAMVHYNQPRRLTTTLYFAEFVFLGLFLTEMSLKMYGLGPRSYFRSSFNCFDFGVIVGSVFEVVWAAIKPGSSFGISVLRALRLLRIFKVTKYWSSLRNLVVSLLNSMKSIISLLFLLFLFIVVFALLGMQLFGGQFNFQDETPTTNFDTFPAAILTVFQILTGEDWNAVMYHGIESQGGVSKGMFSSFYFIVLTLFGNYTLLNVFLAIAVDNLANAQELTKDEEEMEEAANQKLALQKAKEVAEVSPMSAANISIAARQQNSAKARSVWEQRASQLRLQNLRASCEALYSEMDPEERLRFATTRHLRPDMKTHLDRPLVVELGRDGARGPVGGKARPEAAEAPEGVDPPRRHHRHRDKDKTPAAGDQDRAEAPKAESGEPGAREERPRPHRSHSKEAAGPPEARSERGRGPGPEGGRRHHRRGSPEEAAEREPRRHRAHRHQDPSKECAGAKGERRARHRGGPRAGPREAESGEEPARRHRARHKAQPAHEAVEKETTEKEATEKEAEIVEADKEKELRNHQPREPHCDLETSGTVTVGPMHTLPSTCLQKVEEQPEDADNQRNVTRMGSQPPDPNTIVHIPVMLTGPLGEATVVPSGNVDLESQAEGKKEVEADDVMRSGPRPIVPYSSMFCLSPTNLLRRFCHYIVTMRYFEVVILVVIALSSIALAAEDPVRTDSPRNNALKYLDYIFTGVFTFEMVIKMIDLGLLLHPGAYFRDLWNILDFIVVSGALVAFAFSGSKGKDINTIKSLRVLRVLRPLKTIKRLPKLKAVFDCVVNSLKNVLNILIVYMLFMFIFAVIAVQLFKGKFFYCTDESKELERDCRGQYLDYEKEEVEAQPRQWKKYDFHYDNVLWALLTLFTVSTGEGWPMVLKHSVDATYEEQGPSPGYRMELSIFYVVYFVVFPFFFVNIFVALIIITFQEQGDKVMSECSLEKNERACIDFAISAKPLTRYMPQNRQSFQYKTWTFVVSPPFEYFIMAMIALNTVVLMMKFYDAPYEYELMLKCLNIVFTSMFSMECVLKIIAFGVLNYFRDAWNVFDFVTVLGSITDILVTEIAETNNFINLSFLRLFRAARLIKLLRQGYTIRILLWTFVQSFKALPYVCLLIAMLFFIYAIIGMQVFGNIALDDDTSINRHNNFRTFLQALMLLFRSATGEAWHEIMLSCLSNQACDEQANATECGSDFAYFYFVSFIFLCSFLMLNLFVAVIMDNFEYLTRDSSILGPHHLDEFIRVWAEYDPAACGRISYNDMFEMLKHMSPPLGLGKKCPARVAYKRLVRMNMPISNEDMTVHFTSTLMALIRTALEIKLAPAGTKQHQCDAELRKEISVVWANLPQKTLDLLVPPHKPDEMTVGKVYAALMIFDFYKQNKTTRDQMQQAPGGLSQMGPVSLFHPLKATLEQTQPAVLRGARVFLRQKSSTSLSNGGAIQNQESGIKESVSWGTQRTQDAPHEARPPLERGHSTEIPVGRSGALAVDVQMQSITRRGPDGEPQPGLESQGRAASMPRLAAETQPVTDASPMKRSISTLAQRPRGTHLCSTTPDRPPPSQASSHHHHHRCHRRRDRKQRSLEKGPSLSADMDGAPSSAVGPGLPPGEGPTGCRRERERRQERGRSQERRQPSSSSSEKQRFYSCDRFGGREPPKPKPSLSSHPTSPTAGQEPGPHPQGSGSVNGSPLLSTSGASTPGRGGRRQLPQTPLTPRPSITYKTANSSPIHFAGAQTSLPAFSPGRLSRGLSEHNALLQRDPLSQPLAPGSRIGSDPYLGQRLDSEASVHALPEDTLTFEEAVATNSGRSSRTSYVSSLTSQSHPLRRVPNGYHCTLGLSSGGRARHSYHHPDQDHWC
Chain of recombinant human calcium channel α1B-1β1-3 on transfected HEK293 cells (human) (A8K114 whole entry, chain 2 of 2, further chain): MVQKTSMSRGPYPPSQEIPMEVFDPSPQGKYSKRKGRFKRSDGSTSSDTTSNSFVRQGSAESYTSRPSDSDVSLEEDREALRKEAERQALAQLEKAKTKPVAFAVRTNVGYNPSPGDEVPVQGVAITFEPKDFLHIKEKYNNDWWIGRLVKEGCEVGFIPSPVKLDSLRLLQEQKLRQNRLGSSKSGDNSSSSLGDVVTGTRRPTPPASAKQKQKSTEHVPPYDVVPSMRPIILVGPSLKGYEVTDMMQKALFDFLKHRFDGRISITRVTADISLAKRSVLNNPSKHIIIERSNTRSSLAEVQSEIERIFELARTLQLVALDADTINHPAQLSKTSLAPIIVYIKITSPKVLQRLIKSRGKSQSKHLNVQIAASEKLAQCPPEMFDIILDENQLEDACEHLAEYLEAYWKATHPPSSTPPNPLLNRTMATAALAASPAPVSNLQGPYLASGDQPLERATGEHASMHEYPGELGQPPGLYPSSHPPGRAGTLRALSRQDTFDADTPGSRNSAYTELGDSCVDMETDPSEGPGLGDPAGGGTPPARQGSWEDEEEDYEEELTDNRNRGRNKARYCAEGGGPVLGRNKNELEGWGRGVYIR
Chain of recombinant human calcium channel α1B-1β1-2 on transfected HEK293 cells (human) (B1AQK5 whole entry, chain 1 of 2): as the sequence (B1AQK5 whole entry, chain 1 of 2) above
Chain of recombinant human calcium channel α1B-1β1-2 on transfected HEK293 cells (human) (A8K114 whole entry, chain 2 of 2, further chain): as the sequence (A8K114 whole entry, chain 2 of 2, further chain) above
T1 sequence (B1AQK5 whole entry, chain 1 of 2): as the sequence (B1AQK5 whole entry, chain 1 of 2) above
T1 sequence (P54289 whole entry, chain 2 of 2, further chain): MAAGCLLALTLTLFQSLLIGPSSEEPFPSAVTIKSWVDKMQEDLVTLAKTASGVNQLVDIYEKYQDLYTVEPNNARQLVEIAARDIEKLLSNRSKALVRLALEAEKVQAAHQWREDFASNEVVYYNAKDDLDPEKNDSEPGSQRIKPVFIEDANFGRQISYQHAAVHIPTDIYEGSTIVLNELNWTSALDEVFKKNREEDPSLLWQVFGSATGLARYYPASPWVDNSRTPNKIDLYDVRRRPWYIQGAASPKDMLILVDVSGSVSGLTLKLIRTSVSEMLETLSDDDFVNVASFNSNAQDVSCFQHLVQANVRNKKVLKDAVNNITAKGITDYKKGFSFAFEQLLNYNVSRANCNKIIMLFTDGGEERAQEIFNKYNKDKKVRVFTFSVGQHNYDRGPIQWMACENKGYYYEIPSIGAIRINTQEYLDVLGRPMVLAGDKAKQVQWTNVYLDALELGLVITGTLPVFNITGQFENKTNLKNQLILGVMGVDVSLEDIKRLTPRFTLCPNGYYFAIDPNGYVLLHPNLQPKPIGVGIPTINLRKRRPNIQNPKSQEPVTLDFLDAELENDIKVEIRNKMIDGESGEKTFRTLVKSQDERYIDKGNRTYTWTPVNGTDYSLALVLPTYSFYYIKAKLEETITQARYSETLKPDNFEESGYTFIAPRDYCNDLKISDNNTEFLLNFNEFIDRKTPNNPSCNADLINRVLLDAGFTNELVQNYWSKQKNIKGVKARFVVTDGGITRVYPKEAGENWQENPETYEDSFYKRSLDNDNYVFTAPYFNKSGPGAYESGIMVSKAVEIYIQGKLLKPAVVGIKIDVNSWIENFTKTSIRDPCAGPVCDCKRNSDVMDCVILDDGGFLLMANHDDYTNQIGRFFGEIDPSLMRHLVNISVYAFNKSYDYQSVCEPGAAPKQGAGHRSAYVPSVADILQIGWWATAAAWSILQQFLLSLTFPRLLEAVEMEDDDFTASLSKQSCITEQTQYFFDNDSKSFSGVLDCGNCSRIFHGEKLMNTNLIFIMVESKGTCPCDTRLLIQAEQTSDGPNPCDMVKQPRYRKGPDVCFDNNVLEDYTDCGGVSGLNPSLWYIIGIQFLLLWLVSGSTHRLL
Chain of human calcium channel α1B-1 subunit alone on transfected HEK293 cells (human) (B1AQK5 whole entry): as the sequence (B1AQK5 whole entry, chain 1 of 2) above

For “125I-ω-CgTx GVIA (from UniProt P01522 46-72) (peptide)”, the Bmax (sites/cell) [1] was 5760 sites/cell, the Kd [1] was 17.9 pM and the fold change of surface binding (Bmax) against α1B-1 alone [1] was 8 fold. The Bmax (sites/cell) [2] was 45300 sites/cell, the Kd [2] was 54.9 pM and the fold change of binding sites per cell (Bmax) against α1B-2α2bβ1-2 [2] was 2.5 fold. It also gave a fold change of surface receptor density (Bmax) against α1B-1β1-2 [2] of 8 fold, a Bmax (sites/cell) [3] of 8730 sites/cell and a Kd [3] of 17.9 pM. It also gave a fold change of surface binding (Bmax) against α1B-1 alone [3] of 10 fold, a Bmax (sites/cell) [4] of 2940 sites/cell and a Kd [4] of 22.2 pM. For the same molecule, the Bmax (sites/cell) [5] was 19400 sites/cell, the Kd [5] was 53 pM and the fold change of surface receptor density (Bmax) against α1B-2β1-2 [5] was 9 fold. For the same molecule, the Bmax (sites/cell) [6] was 37700 sites/cell, the Kd [6] was 44.3 pM and the fold change of binding capacity (Bmax) against α1B-2α2bβ1-2 [6] was 2 fold. The fold change of surface receptor density (Bmax) against α1B-2β1-3 [6] was 13 fold, the Bmax (sites/cell) [7] was 2130 sites/cell and the Kd [7] was 16.4 pM.

In the case of “ω-CgTx (from UniProt P01522 46-72) (peptide)”, the Kd [8] is reported as 54.6 pM and the binding capacity (Bmax) (sites per cell) [8] is reported as 28700.

Molecule CKSPGSSCSPTSYNCCRSCNPYTKRCY (modifications not checked) [125I-ω-CgTx GVIA, P01522 46-72] has a Bmax (sites/cell) [9] of 2260 sites/cell, a Kd [9] of 84.6 pM and a Bmax (sites/cell) [10] of 757 sites/cell. It also gave a Kd [10] of 31.7 pM and a fold change of binding capacity (Bmax) against α1B-1 alone [11] of 3 fold.
